Measured values published in PMC6804851, “Mechanism of floral scent production in Osmanthus fragrans and the production and regulation of its key floral constituents, β-ionone and linalool”.

How the values were obtained:
[1] = target: T1, OfERF61 (Osmanthus fragrans, UniProt A0A5P8PES4 1-303); assay: EMSA; 0, 2, 4, 8 ug ERF61; complex increases with protein; LightShift Chemiluminescent EMSA Kit (Thermo Fisher), manufacturer's instructions; buffer, salt, pH and temperature not stated; settings: protein: recombinant; tags: pET-30a vector tags (not given); label: 3' biotin (sense strand); blunt
[2] = target: T1, OfERF61; assay: competition; labeled OC1 probe; signal reduced at 20-fold, not detected at 200-fold excess; LightShift Chemiluminescent EMSA Kit (Thermo Fisher), manufacturer's instructions; buffer, salt, pH and temperature not stated; settings: protein: recombinant; tags: pET-30a vector tags (not given); label: none; blunt

T1 sequence (A0A5P8PES4 entry or part of it): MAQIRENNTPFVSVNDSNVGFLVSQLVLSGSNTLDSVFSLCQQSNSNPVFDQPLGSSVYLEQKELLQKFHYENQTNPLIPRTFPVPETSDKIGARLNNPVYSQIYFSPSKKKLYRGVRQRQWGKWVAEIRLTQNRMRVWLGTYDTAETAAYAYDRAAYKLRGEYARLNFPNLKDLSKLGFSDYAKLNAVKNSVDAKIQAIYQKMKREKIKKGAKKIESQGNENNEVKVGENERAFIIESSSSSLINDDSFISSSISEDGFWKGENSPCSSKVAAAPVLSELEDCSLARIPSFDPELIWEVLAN

Binder	binding result [1]	binding result [2]
OC1 probe (OfCCD4 promoter, CAACA element) (dsDNA) DNA 1: AAAGAAAAAAGGACAACAACAGTGGATAATTTGA DNA 2: TCAAATTATCCACTGTTGTTGTCCTTTTTTCTTT	binds	–
OC1 unlabeled competitor (dsDNA) DNA 1: AAAGAAAAAAGGACAACAACAGTGGATAATTTGA DNA 2: TCAAATTATCCACTGTTGTTGTCCTTTTTTCTTT	–	binds
